These results are taken from patent publication US9120851B2, “Human antibodies to human angiopoietin-like protein 4” (Regeneron Pharmaceuticals, Inc., priority 2009, dated 2015).

Assay [1] relates to C57BL/6 mice given hANGPTL4-mFc. It counts as in vivo. The conditions noted are these: antibody 5 mg/kg s.c.; 24 h later hANGPTL4-mFc 25 μg/mouse i.v.; bled 30 min after; mean±SEM. The protocol: In another set of experiments, selected anti-hANGPTL4 antibodies were tested for their ability to inhibit hANGPTL4-induced increase of triglyceride levels. Measurements of total cholesterol, LDL, NEFA-C and HDL were also made. Briefly, C57BL/6 mice were put into groups of five mice each for each antibody tested. Antibodies were administered at 5 mg/kg dose by subcutaneous injection. Control group I, i.e., mice that received neither anti-hANGPTL4 antibodies nor hANGPTL4, were administered with PBS. Twenty-four hours post-injection of antibody, hANGPTL4-mFc (SEQ ID NO:480) was administered (i.v.) at a dose of 25 μg/mouse to each antibody group. Mice were bled at 30 min after hANGPTL4-mFc injection and lipid levels were determined by ADVIA® 1650 Chemistry System (Siemens). Averages were calculated for each of the measurements of triglycerides, total cholesterol (Total-C), LDL, NEFA-C and HDL for each antibody or control group. Levels of circulating anti-hANGPTL4 antibodies (Serum Ab) were also determined using a standard ELISA assay. Briefly, plates were coated with a goat anti-human Fc antibody (Sigma-Aldrich) to capture Serum Ab. Serum was then added to the plates and captured anti-hANGPTL4 antibodies were detected by chemiluminescence using a horseradish peroxidase (HRP) conjugated goat anti-human IgG antibody (Sigma-Aldrich). Control I: Mice that received PBS, but neither anti-hANGPTL4 antibodies nor hANGPTL4-mFc. Control II: Mice that received a human antibody specific for CD20 (i.e., the mAb having the sequence of 2F2 clone disclosed in US 2008/0260641) and hANGPTL4-mFc.

Assay [2] deals with T1, hANGPTL4 peptide (R34-L66 of SEQ ID NO:476) (Homo sapiens, UniProt Q9BY76).
T1 sequence (Q9BY76 34-66 limits assumed): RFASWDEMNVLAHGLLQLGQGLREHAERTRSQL
Briefly: BIACORE, hANGPTL4 peptides injected over captured antibody. It counts as binding. The conditions noted are these: for ka: 62.5 nM-500 nM. The protocol: Further, the binding affinities of H1H268P and H1H284P for various ANGPTL3 and ANGPTL4 peptides were also determined by BIACORE™ system. Briefly, H1H268P (1348±11 RU) and H1H284P (868±13 RU) were captured over anti-human Fc surface and various concentrations (62.5 nM-500 nM) of the hANGPTL3 and hANGPTL4 peptides were injected. The peptides tested were hANGPTL4 (R34-L66 of SEQ ID NO:476), N-terminally biotinylated hANGPTL4 (R34-L66 of SEQ ID NO:476), hANGPTL3 (R36-I68 of SEQ ID NO:485), and N-terminally biotinylated hANGPTL3 (R36-I68 of SEQ ID NO:485). Kinetic analysis was performed to measure ka and kd, and KD values and half-life of antigen/antibody complex dissociation were calculated. NB: No binding under the experimental conditions described.
For orientation: In SPR one partner is held on a chip, and binding of the other changes the refractive index at the surface.

The target in assay [3] is T2, hANGPTL3-His (Homo sapiens, UniProt Q9Y5C1).
T2 construct: His; purchased R&D Systems 3829-AN
T2 sequence (Q9Y5C1 17-460): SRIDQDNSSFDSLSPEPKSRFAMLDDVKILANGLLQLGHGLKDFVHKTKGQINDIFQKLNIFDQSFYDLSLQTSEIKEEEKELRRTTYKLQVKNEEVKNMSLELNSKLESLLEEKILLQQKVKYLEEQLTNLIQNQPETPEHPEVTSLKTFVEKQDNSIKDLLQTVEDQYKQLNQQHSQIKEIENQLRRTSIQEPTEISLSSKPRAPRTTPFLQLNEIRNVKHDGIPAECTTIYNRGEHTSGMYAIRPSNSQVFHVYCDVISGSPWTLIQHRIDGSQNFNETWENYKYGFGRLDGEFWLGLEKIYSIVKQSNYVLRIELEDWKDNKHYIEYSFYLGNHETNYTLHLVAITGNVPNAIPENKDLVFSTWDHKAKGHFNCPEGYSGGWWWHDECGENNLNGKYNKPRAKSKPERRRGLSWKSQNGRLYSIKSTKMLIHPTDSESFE
Briefly: BIACORE cross-reactivity, amine coupled hANGPTL3-His. It counts as binding. The conditions noted are these: for Specific RU, hANGPTL3-His: chip surface 5228 RU, mAb injected at 3.125-50 μg/mL. The protocol: (§1) Possible cross-reactivity of the anti-hANGPTL4 antibodies to related proteins, i.e., hANGPTL3, human angiopoietin-like protein 5 (hANGPTL5) and mouse ANGPTL4 (mANGPTL4), was tested for the selected antibodies, i.e., H1H268P and H1H284P, using the BIACORE™ system. Briefly, anti-hANGPTL4 antibodies as well as negative controls, i.e., two monoclonal antibodies (Control a and Control b) that are non-binders to any ANGPTL proteins, were injected at 3.125 μg/mL-50 μg/mL over amine coupled chip surfaces of hANGPTL3-His (R&D Systems, cat #3829-AN) at 5228 RU, hANGPTL4-His (R&D Systems, cat #4487-AN) at 6247 RU, hANGPTL5-His (Abnova Corp., cat #H00253935-P01) at 5265 RU, and mANGPTL4-His [R26-S410 of mANGPTL4 (SEQ ID NO: 478) fused with an AS linker to a C-terminal 6-histidine tag] at 5233 RU, respectively. A polyclonal antibody specific for hANGPTL3 (R&D System, cat #BAF3485) was also tested.

Assay [4] concerns the target T3, hANGPTL4(26-148)-mFc (Homo sapiens, UniProt Q9BY76).
T3 construct: amino acid residues 26-148 of human ANGPTL4 fused in-line to mouse IgG2a (hANGPTL4-mFc)
Briefly: BIACORE, full mAb or Fab over anti-mFc captured hANGPTL4(26-148)-mFc. It counts as binding.

Assay [5] has as its target T4, hANGPTL5-His (Homo sapiens, UniProt Q86XS5).
T4 construct: His; purchased Abnova Corp. H00253935-P01
Briefly: BIACORE cross-reactivity, amine coupled hANGPTL5-His. The assay is classed as binding. The conditions noted are these: for Specific RU, hANGPTL5-His: chip surface 5265 RU, mAb injected at 3.125-50 μg/mL. The protocol:
as §1

The mark [6] stands for this setting: pH 5.75, 25° C., antigen captured 27 ± 0.6 RU.
The mark [7] stands for this setting: pH 7.2, 25° C., antigen captured 35 ± 1.9 RU.
[8] abbreviates: hANGPTL4 peptide (not biotinylated).

T3 sequence (Q9BY76 with tags, fused parts or gaps): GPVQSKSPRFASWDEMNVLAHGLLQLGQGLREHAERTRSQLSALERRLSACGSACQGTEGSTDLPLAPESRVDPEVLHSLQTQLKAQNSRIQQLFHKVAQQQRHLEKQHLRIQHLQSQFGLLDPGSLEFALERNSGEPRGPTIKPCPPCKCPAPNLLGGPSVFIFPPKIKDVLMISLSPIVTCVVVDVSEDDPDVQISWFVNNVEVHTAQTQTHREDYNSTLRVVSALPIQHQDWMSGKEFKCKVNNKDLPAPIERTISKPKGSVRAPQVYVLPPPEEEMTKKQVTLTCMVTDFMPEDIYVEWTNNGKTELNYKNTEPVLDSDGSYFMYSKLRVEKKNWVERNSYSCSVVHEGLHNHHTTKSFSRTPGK
T4 sequence (Q86XS5 26-388): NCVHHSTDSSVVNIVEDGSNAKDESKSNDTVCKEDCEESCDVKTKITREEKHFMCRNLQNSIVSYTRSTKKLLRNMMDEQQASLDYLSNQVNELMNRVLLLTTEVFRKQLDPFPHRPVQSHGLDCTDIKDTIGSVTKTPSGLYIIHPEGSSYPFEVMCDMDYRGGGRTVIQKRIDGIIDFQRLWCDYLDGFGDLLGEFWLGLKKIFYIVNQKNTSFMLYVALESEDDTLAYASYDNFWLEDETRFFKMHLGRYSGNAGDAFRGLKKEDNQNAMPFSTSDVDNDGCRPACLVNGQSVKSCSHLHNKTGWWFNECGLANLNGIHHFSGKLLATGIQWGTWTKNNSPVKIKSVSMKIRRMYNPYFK

B1: H1H284P: anti-hANGPTL4 antibody, hIgG1 isotype, HCVR/LCVR SEQ ID NOs 90/92 (antibody, V domains shown)
VH: QVQLVESGGGVVQPGRSLRLSCAASGFTFSSYGMHWVRQAPGKGLEWMAVISFDGGNKNNADSVKGRFTISRDNSKNTLYLQMNSLRAEDTAVYYCAKEGDRSGHPYFYYYGLDVWGQGTTVTVS
VL: DIQLTQSPSFLSASVGDRVTITCWASQGISSYLAWYQQKPGKAPKLLIYAASTLQSGVPSRFSGSGSETEFTLTISSLQPEDFATYYCQQLHSYPLTFGGGTKVEIK
As to B1, in assay [1], the HDL came out at 39.60 ± 3.46 mg/dL, the LDL came to 4.98 ± 0.87 mg/dL, the NEFA-C was 0.99 ± 0.11 mg/dL and the Total-C is 80.80 ± 6.40 mg/dL. This molecule came in with a Triglycerides in assay [1] of 99.20 ± 9.52 mg/dL. The “binding to the hANGPTL4 peptides, in words” value in assay [2] (both peptides, highest peptide concentration tested 500 nM) was “did not bind”. Besides, in assay [3], the “binding to hANGPTL3-His (other related ANGPTL protein), in words” value is “did not bind” and the “Specific RU, hANGPTL3-His” value is −6 RU. In addition, the “Response bound at 50 nM mAb or Fab (RU)” value in assay [4] (setting [6]) is on record as 171. In addition, the “Response bound at 50 nM mAb or Fab (RU)” value in assay [4] (setting [7]) turned out to be 99. Besides, in assay [5], the “binding to hANGPTL5-His (other related ANGPTL protein), in words” value is given as “did not bind” and the “Specific RU, hANGPTL5-His” value is recorded as −13 RU.

B2: H1H268P: anti-hANGPTL4 antibody, hIgG1 isotype, HCVR/LCVR SEQ ID NOs 42/44 (antibody, V domains shown)
VH: QVQLQESGAGLLKPSETLSLTCTVYGGSFSIHHWTWIRHPPGKGLEWIGEINHRGSTNYNPSLKSRVTISIDTSKNQFSLKLSAVTAADTAVYYCARGLRFLDWLSSYFDYWGQGTLVTVSS
VL: DIQMTQSPSSLSASVGDRVTITCRASQGISDYLAWYQQKPGKVPNLLIYAASALQSGVPSRFSGSGSGTDFTLTISSLQPEDVATYYCQNYNTAPLTFGGGTKVEIK
With B2, in assay [1], the HDL was 35.94 ± 1.64 mg/dL, the LDL was 4.94 ± 0.51 mg/dL, the NEFA-C stood at 0.82 ± 0.04 mg/dL and the Triglycerides is reported as 92.60 ± 11.44 mg/dL. Also, in assay [2] (hANGPTL4-Nterm biotin peptide), the kd came out at 0.000294 s⁻¹ and the ka came to 4530 M⁻¹ s⁻¹. Besides, in assay [2] (setting [8]), the kd came out at 0.000365 s⁻¹ and the ka worked out at 6490 M⁻¹ s⁻¹. In assay [3], the “binding to hANGPTL3-His (other related ANGPTL protein), in words” value is recorded as “did not bind” and the “Specific RU, hANGPTL3-His” value is reported as −17 RU. For the same molecule, in assay [4] (setting [6]), the “Response bound at 50 nM mAb or Fab (RU)” value was 77. In assay [4] (setting [7]), the “Response bound at 50 nM mAb or Fab (RU)” value came out at 40. Moreover, in assay [5], the “binding to hANGPTL5-His (other related ANGPTL protein), in words” value is reported as “did not bind” and the “Specific RU, hANGPTL5-His” value is recorded as −16 RU.
